# From the supplement of paper PMC9170038
# Test system: MS2 coat protein
# Assay: apparent KD of MS2 coat protein; designed switch direction (-1 OFF switch, 1 ON switch): -1; higher = weaker reporter binding
# How it was run: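 Designed RNA switches were transcribed on Illumina chips by stalled E. coli RNA polymerase and titrated with SNAP-549-labelled MS2 coat protein from 0.7 or 1.5 nM, doubling to 3 µM. Step length ran from 0.8–1.5 h at the lowest concentration to 10–20 min at the highest. The apparent KD is the median over clusters for each design, from curve-fitted normalised cluster fluorescence.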
# [1] = input ligand: microRNA oligo, concentration not stated
# [2] = Eterna round: R95, input ligand: FMN 200 uM
# [3] = Eterna round: R95, input ligand: microRNA oligo, concentration not stated
# [4] = Eterna round: R95, input ligand: none
sequence,measurement,setting,value
"GGUACUCAAAGAGUACCAAUACGAACAUGAGGAUCACCCAUGUAGGAUAUGCUACUCAAAGAGUAGCAGAAGGACAUGAACCCU [Far Half Aptamer v7] (Eterna round: R96, puzzle: Exclusion NG 3)",apparent KD of MS2 coat protein,input ligand: FMN 200 uM,571 nM
same,apparent KD of MS2 coat protein,[1],38.3 nM
same,apparent KD of MS2 coat protein,input ligand: none,61.8 nM
"CCGAAACAUGAGGAUCACCCAUGUGAGGAUAUGAGCGUCUAGUUGAGAGAUUGGACGCUCAGAAGGCACAAAGG [JR_Ex1_Sub074] (Eterna round: R97, puzzle: Exclusion 1)",apparent KD of MS2 coat protein,input ligand: FMN 200 uM,105 nM
same,apparent KD of MS2 coat protein,input ligand: none,35.5 nM
ACUCGAGAAGGAUAUACAUGAGGAUCACCCAUGUUAACUCCCAAGGGCAUCUUAAAAGGUAGAAGGUCUUGAAA [Laonbeus] (puzzle: Exclusion 3),apparent KD of MS2 coat protein,[2],23.7 nM
same,apparent KD of MS2 coat protein,[3],14 nM
same,apparent KD of MS2 coat protein,[4],14.1 nM
"GGUACUAUCACCUGAGUGGUAGUGCCACAAGCUUGUGAUACAUGAGGAUCACCCAUGUCCUCAUUUGCUCGUCUUAU [JL-sv3-2.28 JL mod] (puzzle: Sensor v3, turn-off variant 2)",apparent KD of MS2 coat protein,[2],289 nM
same,apparent KD of MS2 coat protein,[3],1080 nM
same,apparent KD of MS2 coat protein,[4],343 nM
"CUCGCAUUAGGAUAUACAUGAGGAUCACCCAUGUAUAAACCCAGGGUCAACGCCAUAUGUAGAAGGAGUAGCGA [Eternabot (L1) Solution 59] (Eterna round: R97, puzzle: Exclusion 3)",apparent KD of MS2 coat protein,input ligand: FMN 200 uM,22.2 nM
same,apparent KD of MS2 coat protein,input ligand: none,17 nM
UUAUUAAGUGUGAGGAUAUGCUGGUCCUUGGAUCAGCAGAAGGCACAUGAGGAUCACCCAUGUACAAUAUAUUA [Mat - Exclusion 4 - JL Mod - D30] (puzzle: Brourd's mod of Exclusion 4),apparent KD of MS2 coat protein,[3],38.7 nM
"CGCUGGACAGGAUAUGUUCUUGGGCACUUGAGGAUCACCCAAGUCAUCAAGAACUCAGGCACAGAAGGGUUUAUGG [salish99_ex5_r4_018] (Eterna round: R97, puzzle: Exclusion 5)",apparent KD of MS2 coat protein,input ligand: FMN 200 uM,41.5 nM
same,apparent KD of MS2 coat protein,input ligand: none,18.9 nM
CAUACUCAAGUCAGGAUAUGCAGUCGAAUACGGGUGUAGAAGGGACAUGAGGAUCACCCAUGUAGAGAGUAAAG [EX-4 Malc #21] (puzzle: Brourd's mod of Exclusion 4),apparent KD of MS2 coat protein,[2],99.8 nM
same,apparent KD of MS2 coat protein,[3],36.8 nM
same,apparent KD of MS2 coat protein,[4],51.1 nM
"AGAAAUGCCCAUGGCCACAAGCUUCUUGCUUGUCUUACUACAUGAGGAUCACCCAUGUAACAUGGGCUCCUGAUAAU [Maonesra] (puzzle: Sensor v3, turn-off variant 2)",apparent KD of MS2 coat protein,[2],11.8 nM
same,apparent KD of MS2 coat protein,[3],10.1 nM
same,apparent KD of MS2 coat protein,[4],11.1 nM
GGAUCUUGGGUCAGGAUAUGCUGAUAGUUAUGUCAGCAGAAGGGACAUGAGGAUCACCCAUGUGCUUGGUUUUG [Magic-17] (puzzle: Brourd's mod of Exclusion 4),apparent KD of MS2 coat protein,[3],13.1 nM
"CAGCUGAAAGUGAGGAUAUCUAGAGCUUCGGCUCUAGAGAAGGCACAUGAGGAUCACCCAUGUGAUCACAGCUG [BmEx4/7-A1] (Eterna round: R97, puzzle: Brourd's mod of Exclusion 4)",apparent KD of MS2 coat protein,input ligand: FMN 200 uM,633 nM
same,apparent KD of MS2 coat protein,input ligand: none,356 nM
"CAGUACUGAGGAUAUACAUGAGGAUCACCCAUGUGUUCCAGCUAGGAAACUAGCAAGUGUAGAAGGCAGUACUG [Salish 065 m7] (Eterna round: R97, puzzle: Exclusion 3)",apparent KD of MS2 coat protein,input ligand: FMN 200 uM,1090 nM
same,apparent KD of MS2 coat protein,input ligand: none,410 nM
"GUAUAGCGAGGAUAUACAUGAGGAUCACCCAUGUGAUCCUUAGGCUGUACAAGCCAAUGUAGAAGGCGCAAAUU [jl-ex3.4.59 ViennaUCT mod] (Eterna round: R97, puzzle: Exclusion 3)",apparent KD of MS2 coat protein,input ligand: FMN 200 uM,75.7 nM
same,apparent KD of MS2 coat protein,input ligand: none,147 nM
CUUUUGUGAGGAUAUCGGUAGUAAUACAAUAGUAUUACUACUGAGAAGGCACAUGAGGAUCACCCAUGUUCCUC [Ex4 344 Omei mod 9] (puzzle: Exclusion 4),apparent KD of MS2 coat protein,[3],43 nM
"AGUACUAUCACGAAAGUGAUAGUACAAUAAGCUAGUGAAACAUGAGGAUCACCCAUGUCCUCAUUAGCUCGUCUUAU [JL turnoff v2 78] (Eterna round: R96, puzzle: Sensor v2, turn-off variant 2)",apparent KD of MS2 coat protein,input ligand: FMN 200 uM,14 nM
same,apparent KD of MS2 coat protein,[1],258 nM
same,apparent KD of MS2 coat protein,input ligand: none,16.4 nM
"AAGAAGUCAGGAUAUACAUGAGGAUCACCCAUGUAAAAGAAAGAAAAGGGAAAGAAAAGUAGAAGGGACAAGAA [Menkheperre Thutmose III] (Eterna round: R96, puzzle: Exclusion 3)",apparent KD of MS2 coat protein,input ligand: FMN 200 uM,22.9 nM
same,apparent KD of MS2 coat protein,[1],21.8 nM
same,apparent KD of MS2 coat protein,input ligand: none,27.2 nM
"AACAUGUAAGGAUAUAAAAGAAGGAGUACAAAGCCCUCCUAUUAGAAGGUACAUGAGGAUCACCCAUGUGGCGG [Eternabot (L2) Solution 96] (Eterna round: R97, puzzle: Exclusion 4)",apparent KD of MS2 coat protein,input ligand: FMN 200 uM,336 nM
same,apparent KD of MS2 coat protein,input ligand: none,57.1 nM
"GGAUAUAACGUAGGAUAUGAGAGAAACAGACGAUCAGAAGGACGACAUGAGGAUCACCCAUGUGAUCUAUCAAUAUUAUACAUG [Prohibition 97 - Jieux - Exclusion NG 1] (Eterna round: R96, puzzle: Exclusion NG 1)",apparent KD of MS2 coat protein,input ligand: FMN 200 uM,446 nM
same,apparent KD of MS2 coat protein,[1],180 nM
same,apparent KD of MS2 coat protein,input ligand: none,300 nM
"GAGUAGUAAGGAUAUGUCUCUGGUGGCUUCGGUCACUAGAGGCAGAAGGUACAUGAGGAUCACCCAUGUUCCUC [ExDelusion 7 - Jieux - Exclusion 4] (Eterna round: R97, puzzle: Exclusion 4)",apparent KD of MS2 coat protein,input ligand: FMN 200 uM,220 nM
same,apparent KD of MS2 coat protein,input ligand: none,55.2 nM
"AAUGCUGGUGUGAGGAUAUCAGCUGAAGAACAGAAUGAGAAGGCACAUGAGGAUCACCCAUGUAAAAGAAUAAA [Atbelaqu] (Eterna round: R97, puzzle: Brourd's mod of Exclusion 4)",apparent KD of MS2 coat protein,input ligand: FMN 200 uM,35.9 nM
same,apparent KD of MS2 coat protein,input ligand: none,25.6 nM
"CUUUUGUGAGGAUAUGGUAACGAUGACAUGAGGAUCACCCAUGUAACAUGGGACUUGAGACUAGAAGGCACUAACG [JR_Ex5_Sub025] (Eterna round: R97, puzzle: Exclusion 5)",apparent KD of MS2 coat protein,input ligand: FMN 200 uM,94.7 nM
same,apparent KD of MS2 coat protein,input ligand: none,134 nM
"UAUUAAACAAGCAGAUCCCACAUGAGGAUCACCCAUGUGCUCGUCUUAUAAGGUACUGUGACGAGAGUCACGGUACC [Mat - Sensor, turn-off var - Eli Mod - D63] (Eterna round: R97, puzzle: Sensor, turn-off variant 1)",apparent KD of MS2 coat protein,input ligand: FMN 200 uM,42.5 nM
same,apparent KD of MS2 coat protein,input ligand: none,45.2 nM
UAGAUGGGAGGAUAUGCAUAGAUACAGAUUCGUGUAGUGCUACAUGAGGAUCACCCAUGUAGAAGGCCCGUCUU [JL-ex2-2.22 Mayanne mod] (puzzle: Exclusion 2),apparent KD of MS2 coat protein,[3],14.2 nM
"AUUGAUGUUGAGGAUAUGCUUUUAUUUAUAAUAGCAGAAGGCGAUACAUGAGGAUCACCCAUGUUCAUGGUAGU [JR_E6_Sub095] (Eterna round: R96, puzzle: Exclusion 6)",apparent KD of MS2 coat protein,input ligand: FMN 200 uM,77.6 nM
same,apparent KD of MS2 coat protein,[1],52.3 nM
same,apparent KD of MS2 coat protein,input ligand: none,63.4 nM
"AGUACUAACACGCGUGUGUUAGUACAAUAAGCUUGUGAAACAUGAGGAUCACCCAUGUCCUCAUAAGCUCGUCUUAU [salish99_TOv2_r3_076] (puzzle: Sensor v3, turn-off variant 2)",apparent KD of MS2 coat protein,[2],15.7 nM
same,apparent KD of MS2 coat protein,[3],608 nM
same,apparent KD of MS2 coat protein,[4],13.7 nM
